Biological target: T1, hPIEZO1 C-terminal segment (residues 1592-2521) with N-terminal GFP (human, UniProt Q92508 1592-2521)
T1 construct: PIEZO1, human, residues 1592-2521, second cistron (after the IRES element) of the bicistronic vector hPIEZO1 NtCt; the methods say amplified from amino acid 1591 to the end, the results print 1592 to 2251 and 1591-2251; C-terminus amplified from HekP1; inserted at a SpeI site after the GFP of pIRES2-EGFP, so GFP precedes the segment; also called Ct-EGFP; C-terminal fragment; source: HEK293, …
T1 sequence (looked up): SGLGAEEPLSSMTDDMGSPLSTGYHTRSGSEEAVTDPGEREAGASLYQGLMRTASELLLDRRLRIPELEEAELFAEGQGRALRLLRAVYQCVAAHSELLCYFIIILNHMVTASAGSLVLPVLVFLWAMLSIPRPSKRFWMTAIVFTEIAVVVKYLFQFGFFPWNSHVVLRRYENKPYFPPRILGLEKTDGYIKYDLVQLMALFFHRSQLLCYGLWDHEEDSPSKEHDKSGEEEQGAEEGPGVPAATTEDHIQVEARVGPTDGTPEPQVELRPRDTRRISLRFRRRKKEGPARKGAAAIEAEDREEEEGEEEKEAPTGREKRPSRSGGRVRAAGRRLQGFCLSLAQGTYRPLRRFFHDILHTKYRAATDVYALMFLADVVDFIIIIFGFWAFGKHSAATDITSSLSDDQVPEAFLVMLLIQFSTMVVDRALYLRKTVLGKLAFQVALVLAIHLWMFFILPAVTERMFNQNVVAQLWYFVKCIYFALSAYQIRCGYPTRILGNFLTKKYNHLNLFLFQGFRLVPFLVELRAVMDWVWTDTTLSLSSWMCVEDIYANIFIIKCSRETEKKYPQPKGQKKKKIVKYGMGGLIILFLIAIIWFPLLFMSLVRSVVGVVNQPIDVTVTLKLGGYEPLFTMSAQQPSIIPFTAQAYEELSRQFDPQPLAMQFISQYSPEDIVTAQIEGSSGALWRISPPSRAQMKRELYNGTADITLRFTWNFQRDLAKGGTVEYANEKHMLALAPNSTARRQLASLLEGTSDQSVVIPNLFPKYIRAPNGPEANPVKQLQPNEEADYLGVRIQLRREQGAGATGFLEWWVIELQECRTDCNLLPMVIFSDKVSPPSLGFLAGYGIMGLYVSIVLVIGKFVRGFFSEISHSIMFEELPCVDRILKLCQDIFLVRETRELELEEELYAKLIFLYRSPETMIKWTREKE
Assay: FRET or BRET; living HEK293 cells transfected with bicistronic vectors; EGFP and mCherry fusions; FRET ratio = 680 nm emission excited at 480 nm over 680 nm emission excited at 560 nm
Conditions: partners not purified

- FRET ratio: 3.4
B1: hPIEZO1 N-terminal segment (residues 1-1591) with mCherry linked at its end (domain or fragment, human, UniProt Q92508 1-1591, looked up)
chain: MEPHVLGAVLYWLLLPCALLAACLLRFSGLSLVYLLFLLLLPWFPGPTRCGLQGHTGRLLRALLGLSLLFLVAHLALQICLHIVPRLDQLLGPSCSRWETLSRHIGVTRLDLKDIPNAIRLVAPDLGILVVSSVCLGICGRLARNTRQSPHPRELDDDERDVDASPTAGLQEAATLAPTRRSRLAARFRVTAHWLLVAAGRVLAVTLLALAGIAHPSALSSVYLLLFLALCTWWACHFPISTRGFSRLCVAVGCFGAGHLICLYCYQMPLAQALLPPAGIWARVLGLKDFVGPTNCSSPHALVLNTGLDWPVYASPGVLLLLCYATASLRKLRAYRPSGQRKEAAKGYEARELELAELDQWPQERESDQHVVPTAPDTEADNCIVHELTGQSSVLRRPVRPKRAEPREASPLHSLGHLIMDQSYVCALIAMMVWSITYHSWLTFVLLLWACLIWTVRSRHQLAMLCSPCILLYGMTLCCLRYVWAMDLRPELPTTLGPVSLRQLGLEHTRYPCLDLGAMLLYTLTFWLLLRQFVKEKLLKWAESPAALTEVTVADTEPTRTQTLLQSLGELVKGVYAKYWIYVCAGMFIVVSFAGRLVVYKIVYMFLFLLCLTLFQVYYSLWRKLLKAFWWLVVAYTMLVLIAVYTFQFQDFPAYWRNLTGFTDEQLGDLGLEQFSVSELFSSILVPGFFLLACILQLHYFHRPFMQLTDMEHVSLPGTRLPRWAHRQDAVSGTPLLREEQQEHQQQQQEEEEEEEDSRDEGLGVATPHQATQVPEGAAKWGLVAERLLELAAGFSDVLSRVQVFLRRLLELHVFKLVALYTVWVALKEVSVMNLLLVVLWAFALPYPRFRPMASCLSTVWTCVIIVCKMLYQLKVVNPQEYSSNCTEPFPNSTNLLPTEISQSLLYRGPVDPANWFGVRKGFPNLGYIQNHLQVLLLLVFEAIVYRRQEHYRRQHQLAPLPAQAVFASGTRQQLDQDLLGCLKYFINFFFYKFGLEICFLMAVNVIGQRMNFLVTLHGCWLVAILTRRHRQAIARLWPNYCLFLALFLLYQYLLCLGMPPALCIDYPWRWSRAVPMNSALIKWLYLPDFFRAPNSTNLISDFLLLLCASQQWQVFSAERTEEWQRMAGVNTDRLEPLRGEPNPVPNFIHCRSYLDMLKVAVFRYLFWLVLVVVFVTGATRISIFGLGYLLACFYLLLFGTALLQRDTRARLVLWDCLILYNVTVIISKNMLSLLACVFVEQMQTGFCWVIQLFSLVCTVKGYYDPKEMMDRDQDCLLPVEEAGIIWDSVCFFFLLLQRRVFLSHYYLHVRADLQATALLASRGFALYNAANLKSIDFHRRIEEKSLAQLKRQMERIRAKQEKHRQGRVDRSRPQDTLGPKDPGLEPGPDSPGGSSPPRRQWWRPWLDHATVIHSGDYFLFESDSEEEEEAVPEDPRPSAQSAFQLAYQAWVTNAQAVLRRRQQEQEQARQEQAGQLPTGGGPSQEVEPAEGPEEAAAGRSHVVQRVLSTAQFLWMLGQALVDELTRWLQEFTRHHGTMSDVLRAERYLLTQELLQGGEVHRGVLDQLYTSQAEATLPGPTEAPNAPSTVS
notes: PIEZO1, human, residues 1-1591, first cistron of the bicistronic vector hPIEZO1 NtCt; also called Nt-mCherry; N-terminal fragment; source: HEK293, transfected with the bicistronic plasmid hPIEZO1 NtCt, in living cells; not shown: mCherry, C-terminal, kept
